# Test results published in the supplement of paper PMC10567573.
# B1: C2orf65 (parent)
# chain: QLDWDELETNQQHFHALCHSLLVS
# B2: SETD8 (parent)
# chain: GKQAPRKKAQGKTQQNRKLTDFYP
# Variants of: B1
# Assay: protein stability index of a GFP-peptide fusion (GPS, HEK-293T) (PSI 1-6); higher = more stable
# Conditions: c terminus: a fixed tail appended
# 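Note: lentivirally expressed fusions sorted by FACS into six bins by GFP to DsRed ratio, PSI derived from sequencing read proportions per bin multiplied by bin number.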
row,Variant,protein stability index
1,L2N,2.31
2,L2R,2.25
3,L2Y,1.64
4,L2C,1.95
5,L2W,1.63
6,L2H,2.51
7,L2S,2.17
8,L2D,2.55
9,L2V,2.31
10,L2K,2.4
11,L2P,3.02
12,L2G,2.33
13,L2I,1.78
14,L2Q,2.42
15,L2T,2.02
16,L2A,2.68
17,L2E,2.97
18,L2M,1.94
19,L2F,1.98
20,L7C,2.5
21,L7A,2.33
22,E6S,1.66
23,E6M,1.83

row,Variant,protein stability index
1,E6P,2.5
2,E6L,2.34
3,E6K,1.46
4,E6Y,1.44
5,E6G,2.13
6,E6H,1.57
7,E6I,1.81
8,E6N,1.79
9,E6C,1.95
10,E6W,2.55
11,E6Q,1.84
12,E6T,1.82
13,E6D,1.9
14,E6A,2.04
15,E6R,1.96
16,E6V,2.32
17,E6F,3.45
18,D3T,2.59
19,D3P,2.07
20,D3A,2.27
21,D3C,1.85
22,D3H,1.92
23,D3F,1.93

row,Variant,protein stability index
1,D3M,1.05
2,D3W,3.03
3,D3N,2.01
4,D3R,1.85
5,D3V,1.73
6,D3G,2.85
7,D3E,2.27
8,D3I,2.23
9,D3Y,1.47
10,D3L,1.45
11,D3S,1.57
12,D3K,1.83
13,D3Q,2.1
14,W4M,2.98
15,W4L,2.4
16,W4S,3.2
17,W4C,3.19
18,W4D,3.18
19,W4F,2.54
20,W4A,2.93
21,W4H,2.69
22,W4I,3.03
23,W4G,2.99

row,Variant,protein stability index
1,W4V,3.11
2,W4K,2.85
3,W4P,2.02
4,W4N,2.78
5,W4Y,2.56
6,W4Q,3.35
7,W4R,2.77
8,W4T,3.14
9,Q1N,2.25
10,Q1R,1.96
11,Q1S,2.21
12,Q1Y,1.68
13,Q1T,2.06
14,Q1G,2.55
15,Q1I,1.5
16,Q1W,1.51
17,Q1E,2.29
18,Q1D,2.67
19,Q1M,2.46
20,Q1F,1.81
21,Q1A,2.11
22,Q1P,2.48
23,Q1K,1.75

row,Variant,protein stability index
1,Q1L,1.64
2,Q1V,2.5
3,Q1H,2.22
4,Q1C,1.65
5,D5L,1.22
6,D5G,2.07
7,D5S,1.83
8,D5W,1.18
9,D5I,1.58
10,D5A,2.01
11,D5M,1.95
12,D5C,1.55
13,D5V,1.66
14,D5F,2.47
15,D5K,2
16,D5H,2.04
17,D5Y,2.31
18,D5E,2.54
19,D5T,2.18
20,D5N,1.49
21,D5Q,1.57
22,D5R,1.95
23,D5P,2.34

# Variants of: B2
# Assay: as above
# Conditions: c terminus: a fixed tail appended
row,Variant,protein stability index
1,P24C,3.62
2,P24W,1.91
3,P24Y,2.73
4,P24R,2.67
5,P24G,4.31
6,P24L,3.56
7,P24S,3.43
8,P24Q,3.65
9,P24A,2.66
10,P24F,3.48
11,P24M,4.09
12,P24K,3.09
13,P24I,3.44
14,P24N,2.18
15,P24D,4.33
16,P24H,4.02
17,D21R,3.46
18,D21P,3.83
19,D21N,3.24
20,D21V,3.21
21,D21M,3.46
22,D21T,3.9
23,D21Y,2.97
24,F22T,4.57
25,F22P,4.98
26,F22N,4.77

row,Variant,protein stability index
1,F22S,4.69
2,F22E,4.61
3,F22D,3.15
4,F22Q,4.17
5,F22I,4.13
6,F22H,4.13
7,F22R,3.6
8,F22K,4.97
9,F22A,4.61
10,F22M,4.7
11,F22G,4.75
12,F22L,4.51
13,Y23V,4.05
14,Y23P,4.44
15,Y23S,4.39
16,Y23T,5.12
17,Y23Q,4.04
18,Y23I,4.07
19,Y23E,4.51
20,Y23G,4.34
21,Y23H,4.93
22,Y23K,5.33
23,Y23C,4.28
24,Y23N,4.83
25,Y23D,4.64
26,Y23L,3.96
